We go through six sequences from patent US20240200044.

The test system of series [1] is ATM-L TALEN L3-1 (in cells) A252T,Q505K,Q745P (full TALE construct numbering) (synthetic construct). As to the kind of experiment: cell_activity. Particulars: U2OS.
For series [2], the system named is ATM-L TALEN L3-2 (in cells) A252T,L338S,Q505K,Q745P (full TALE construct numbering) (synthetic construct). As to the kind of experiment: cell_activity. Particulars: U2OS.
Series [3] deals with ATM-L TALEN L1-2 (A252T) A252T (full TALE construct numbering) (synthetic construct). Nature of the series: cleavage_in_vitro. Particulars: canonical 6.3% in same experiment.
For series [4], the system named is canonical ATM-R TALEN (synthetic construct). Nature of the series: cleavage_in_vitro. Conditions: 12 nM, 90 min, paired with canonical ATM-L.

Consider “GGAAATGGGATACTGAGT (double strand) [OffA17 left half-site]”, for which the results for the activity in series [1], in series [2] (HEK293 0.025%) and in series [3] were less than 0.001 % indels, less than 0.001 % indels and 0.3 % cleavage, respectively.

For the sequence “TAGATTGAAATGCTGTTT (double strand) [OffA23 left half-site]”, the activity in series [1] and in series [2] was less than 0.001 % indels in each case.

Take “TGAATAGGAAATATATTT (double strand) [OffA1 left half-site]”: the activity in series [1] was less than 0.001 % indels; in series [2] it was 0.002 % indels.

Turning to “TGAATTGAGAGAAGCATT (double strand) [OffA11 left half-site]”, the activity was 0.002 % indels in series [1] (control 0.001%, not significant) and 0.002 % indels in series [2] (not significant, HEK293 <0.001%).

For “TGAATTGGGATGCTGTTT (double strand) [ATM left half-site on-target]”, the values for the activity in series [1] and in series [2] (HEK293 23.26%) were 7.04 % indels and 7.97 % indels, respectively.

“TTTATTTTACTGTCTTTA (double strand) [ATM right half-site on-target (sense strand)]” showed an activity in series [4] of 31.5 % cleavage.
